How the values were obtained:
pro-factor D-His = pro-factor D-His (UniProt P00746)
ST-pro-factor D-His = ST-pro-factor D-His (UniProt P00746)

Chain of full length wild type recombinant human MASP-3 (chain): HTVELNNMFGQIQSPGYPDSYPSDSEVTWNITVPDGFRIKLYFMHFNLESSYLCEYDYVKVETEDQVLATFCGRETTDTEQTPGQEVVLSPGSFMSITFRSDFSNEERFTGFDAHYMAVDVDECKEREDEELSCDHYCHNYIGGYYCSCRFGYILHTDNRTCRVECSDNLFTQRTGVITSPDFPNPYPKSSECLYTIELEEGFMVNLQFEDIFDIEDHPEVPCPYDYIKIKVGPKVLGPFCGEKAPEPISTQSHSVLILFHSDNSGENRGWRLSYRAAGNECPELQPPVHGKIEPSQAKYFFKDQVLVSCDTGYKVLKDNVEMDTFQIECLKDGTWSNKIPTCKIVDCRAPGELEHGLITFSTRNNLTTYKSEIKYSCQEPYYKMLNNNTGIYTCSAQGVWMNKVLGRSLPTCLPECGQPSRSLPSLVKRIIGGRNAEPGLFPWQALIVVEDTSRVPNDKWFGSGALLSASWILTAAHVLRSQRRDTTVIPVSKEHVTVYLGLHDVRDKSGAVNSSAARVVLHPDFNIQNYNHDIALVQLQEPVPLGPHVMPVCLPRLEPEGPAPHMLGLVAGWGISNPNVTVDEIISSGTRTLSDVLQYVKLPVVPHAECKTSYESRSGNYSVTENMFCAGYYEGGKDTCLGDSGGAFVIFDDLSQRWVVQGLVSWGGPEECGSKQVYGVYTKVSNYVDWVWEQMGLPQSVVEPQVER

Substance	cleavage of pro-factor D (Western blot) (pro-factor D-His)	cleavage of pro-factor D (Western blot) (ST-pro-factor D-His)
catalytically-inactive full length MASP-3 (S679A)	The catalytically-inactive full length MASP-3 (S679A; lane 3) and MASP-1 (S646A; lane 3) failed to cleave either substrate	The catalytically-inactive full length MASP-3 (S679A; lane 3) and MASP-1 (S646A; lane 3) failed to cleave either substrate
full length wild type recombinant human MASP-3	Identical results were obtained with the pro-factor D-His6 polypeptide (not shown)	only full length MASP-3 (lane 2) and the MASP-1 CCP1-CCP2-SP) fragment (lane 5) cleaved ST-pro-factor D-His6
